# Patent US20210403586A1, “MUTANT OF RANKL AND PHARMACEUTICAL COMPOSITION COMPRISING SAME FOR PREVENTING OR TREATING OSTEOPOROSIS” (INDUSTRY-ACADEMIC COOPERATION FOUNDATION CHOSUN UNIVERSITY, priority 2018, published 2021)
# Entries after “also recorded” stand apart in the source; their conditions may differ.
# B1: mRANKL-MT3: mouse RANKL mutant: K180R, D189I, R190K, H223F, H224Y; nucleic acid SEQ ID NO: 3 (protein, UniProt O35235 158-316, looked up, variant K180R D189I R190K H223F H224Y)
# chain: KPEAQPFAHLTINAASIPSGSHRVTLSSWYHIKGWAKISNMTLSNGKLRVNQDGFYYLYANICFRFYETSGSVPTDYLQLMVYVVKTSIKIPSSHNLMKGGSTKNWSGNSEFHFYSINVGGFFKLRAGEEISIQVSNPSLLDPDQDATYFGAFKVQDID
# What was measured:
# [1] = test system: bone marrow-derived monocytes (BMMs); assay: TRAP analysis of osteoclastogenesis induced by RANKL variants in BMMs; type: cell-based, mouse; details: RANKL-treated primary BMM; listed as mtRANKL
# Procedure: The RANKL-RANK binding sites are K180, D189, R190, H223, H224, which are conserved between humans and mice. We selected 4 mutant RANKLs to be purified. Their size corresponded to the wild type RANKL (39 kDa) (FIG. 2B). Tartrate-resistant acid […] (TRAP) activity was absent for all RANKLs even at 150 ng/mL (FIG. 2C, D).
# 4-week old male BALB/c mice were purchased from Orient Bio (Gwangju, Korea) and kept in an animal facility approved by the Chosun University Animal Management Committee (IACUC2017-A0002). After obtaining bone marrow cells from mice, bone marrow mononuclear cells were seeded into 96-well plates (1 Y 10^4 cells/well), and in the absence or presence of various concentrations of compounds, incubated with M-CSF (100 ng/mL) overnight before stimulation with RANKL (50 ng/well). The medium was replaced every other days. 6 days later, the cells were fixed with 4% paraformaldehyde, permeated in 0.1% Triton X-100, and washed with PBS. Then, TRAP activity (Sigma-Aldrich, St. Louis, Mo., USA) staining was performed. TRAP-positive multinuclear cells containing 5 or more nuclei were counted as osteoclasts.
# To evaluate the effect of mtRANKL on osteoclastogenesis, TRAP analysis was performed on RANKL-treated primary bone marrow-derived macrophages (BMM) by the method described in Reference Example 2, and the results are shown in FIGS. 4B and 4C.
# BMMs = assay: Bone-resorption assay (Osteo Assay Surface plates); type: cell-based, mouse; details: 6 days, mRANKL-MT3 150 ng/mL
# Procedure: We used bone-resorption and F-actin ring formation assays to investigate osteoclast activity. To observe bone resorption in vitro, BMMs were cultured in Corning Osteo Assay Surface 96-well Multiple Well Plates (Sigma) with 30 ng/mL M-CSF and 75 ng/mL sRANKL (soluble RANKL; R&D Systems) or isolated RANKL for 6 days. Then, the plates were washed with pure water. To monitor actin ring formation, BMMs were grown on glass slides. After culture, the cells were fixed with 4% formalin, permeabilized with 0.5% Triton X100 in PBS for 5 min at room temperature, and incubated with 0.5 mg/mL TRITC-labelled phalloidin for 30 min. The cells were then rinsed with PBS. F-actin rings were visualized using a fluorescence ECLIPSE Ts2R microscope (Nikon, Tokyo, Japan).
# BALB/c mice = assay: Bone destruction by injected mtRANKL, micro-CT; type: in vivo, mouse; details: subcutaneous 1.0 mg/kg three times a week
# Procedure: (§1) The right femur of each mouse subjected to each experiment was incised and CT imaging was performed using a Quantum GX pCT imaging system (PerkinElmer, Hopkinton, Mass., USA) located at the Korea Basic Science Institute in Gwangju. As for the X-ray source, the field of view was set to 45 mm, 90 kV and […] (voxel size, 90 μm; scanning time, 14 minutes). CT imaging was performed using a Quantum GX 3D Viewer software. After scanning, image segmentation was performed in Analyze (AnalyzeDirect, Overland Park, Kans., USA). Briefly, the legs were segmented using semi-automatic and manual tools (e.g., object extractor, area expansion, and object separator) using volume editing tools. Then, a 3D rendering of the leg was created, and bone mineral density (BMD), bone volume (BV), bone volume percentage (%), and trabecular thickness were calculated using the ROI tools.
# To investigate the bone-destructive effect of mtRANKL, 4-week-old male BALB/c mice (Orient Bio) were placed in a cage capable of accommodating up to 4 animals in a light-controlled environment ([…]) and provided with autoclaved water and both whole and powdered rodent diet (Purina, St. Louis, Mo., USA). Starting from 6 weeks of age, 9 mice were randomly divided into three groups, and each group was subcutaneously injected with wild-type RANKL (Amgen, Thousand Oaks, Calif., USA), mtRANKL purified in Reference Example 2, and saline three times a week (1.0 mg/kg). The trabecular bone in femoral neck was examined by Micro-CT analysis described in Reference Example 6.
# isolated spleen cells = assay: Th1/Th2 cytokine secretion of isolated spleen cells; type: cell-based, mouse; details: culture supernatant of Sham and IM splenocytes stimulated with sRANKL or mRANKL-MT3
# Excerpt: To determine whether mRANKL-MT3 immunization influences Th1 and Th2 cytokine production, we evaluated the effects of mRANKL-MT3 on IL-4 and IL-10 secretion, which are markers for Th2 responses, and IFN-γ, a marker for Th1 responses, in the culture supernatant of isolated spleen cells stimulated with sRANKL or mRANKL-MT3 (FIG. 8C).
# [2] = test system: ovariectomized (OVX) mice; assay: mtRANKL immunization in ovariectomized (OVX) mice, micro-CT; type: in vivo, mouse; details: mice ovariectomized after immunization with mtRANKL vs OVX mice
# Procedure: as §1, with “The right femur of each mouse subjected to each experiment was incised and CT imaging was performed using a Quantum GX pCT imaging system (PerkinElmer, Hopkinton, Mass., USA) located at the Korea Basic Science Institute in Gwangju.” left out
# 17-week-old […] BALB/c mice were equally divided into a group that was given OVX after immunization with mtRANKL, a group that was given only OVX, and a non-treated negative control group.
# The mtRANKL-immunized group was immunized with mtRANKL a total of three times: started with 1st immunization at 52 days, 2nd immunization at 39 days, 3rd immunization at 14 days each before OVX. mtRANKL used in the immunization was injected after mixing with an aluminum hydroxide adjuvant. The amount of mtRANKL was 0.2 mg per mouse.
# 52 days after 1st immunization, OVX was performed. On day 70 after OVX, serum were collected and tibias were extracted, and then the adhesive soft tissues of tibias were removed. […]
molecule,measurement,setting,value
B1,number of TRAP-positive multinuclear osteoclasts / osteoclast differentiation,[1],did not induce osteoclast differentiation; also recorded: led to a reduction of TRAP-positive cells
same,resorption pits,BMMs,no resorption pits
same,trabecular bone by Micro-CT (osteoporosis),BALB/c mice,no significant change was observed
same,IFN-γ levels,isolated spleen cells,no significant differences
same,IL-4 and IL-10 secretion,isolated spleen cells,significantly increased
same,BMD of tibias,[2],significantly higher
same,trabecular bones of proximal tibias (micro-CT),[2]; day 70 after OVX,thicker fibers and higher density than those of OVX mice
